Results reported in the supplement of paper PMC9112550, “Optimization of the antimicrobial peptide Bac7 by deep mutational scanning” (BMC Biology, 2022).

The sequences below were run on Escherichia coli TOP10 (assay: shrunken log2 fold change of peptide-encoding DNA abundance (4.5 h post-induction vs induction); higher = less antimicrobial activity (less host growth inhibition)). Details: time post-induction: 4.5 h; library: site-saturation at positions 5, 18, 19, 20.
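Further: peptides expressed intracellularly from a pBAD plasmid library in pooled LB shake-flask culture, induced with 0.3% L-arabinose, DNA abundance read by NGS, three biological replicates, DESeq2 with apeglm shrinkage.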

| Sequence | shrunken log2 fold change |
| --- | --- |
| RRIRDRPPRLPRPRPRPRLCPRP | 0.265 |
| RRIRFRPPRLPRPRPRPLSMPRP | -0.363 |
| RRIRIRPPRLPRPRPRPPTDPRP | 1.33 |
| RRIRDRPPRLPRPRPRPGISPRP | 0.0115 |
| RRIRLRPPRLPRPRPRPYTLPRP | -0.143 |
| RRIRTRPPRLPRPRPRPQVHPRP | -0.221 |
| RRIRQRPPRLPRPRPRPAQMPRP | -0.15 |
| RRIRQRPPRLPRPRPRPFGPPRP | 0.0675 |
| RRIRERPPRLPRPRPRPAMGPRP | -0.0135 |
| RRIRARPPRLPRPRPRPTFYPRP | -0.00745 |
| RRIRKRPPRLPRPRPRPTPTPRP | 0.831 |
| RRIRARPPRLPRPRPRPDITPRP | 0.491 |
| RRIRQRPPRLPRPRPRPMKPPRP | -0.0268 |
| RRIRPRPPRLPRPRPRPFLNPRP | -0.622 |
| RRIRKRPPRLPRPRPRPVKAPRP | -0.0242 |
| RRIRVRPPRLPRPRPRPHQHPRP | -0.189 |
| RRIRQRPPRLPRPRPRPFQVPRP | 0.0303 |
| RRIRTRPPRLPRPRPRPCWLPRP | -0.0724 |
| RRIRTRPPRLPRPRPRPHHSPRP | -0.133 |
| RRIRLRPPRLPRPRPRPWNKPRP | -0.436 |
| RRIRDRPPRLPRPRPRPHNVPRP | 0.00884 |
| RRIRYRPPRLPRPRPRPIHEPRP | 0.00548 |
| RRIRIRPPRLPRPRPRPNTEPRP | -0.0443 |
| RRIRGRPPRLPRPRPRPITSPRP | 0.0724 |
| RRIRYRPPRLPRPRPRPSQKPRP | -0.359 |

| Sequence | shrunken log2 fold change |
| --- | --- |
| RRIRLRPPRLPRPRPRPHPLPRP | -0.152 |
| RRIRIRPPRLPRPRPRPHPHPRP | -0.496 |
| RRIRERPPRLPRPRPRPMGAPRP | 0.0638 |
| RRIRPRPPRLPRPRPRPHIAPRP | -0.392 |
| RRIRKRPPRLPRPRPRPKERPRP | -0.0188 |
| RRIRMRPPRLPRPRPRPAGHPRP | 1.24 |
| RRIRERPPRLPRPRPRPSDQPRP | -1.5 |
| RRIRDRPPRLPRPRPRPTYAPRP | 0.0176 |
| RRIRGRPPRLPRPRPRPQTEPRP | 0.149 |
| RRIRMRPPRLPRPRPRPAIRPRP | -0.0476 |
| RRIRFRPPRLPRPRPRPRDKPRP | -0.102 |
| RRIRERPPRLPRPRPRPGTYPRP | -0.478 |
| RRIRWRPPRLPRPRPRPIVAPRP | 0.541 |
| RRIRRRPPRLPRPRPRPYRMPRP | -0.292 |
| RRIRGRPPRLPRPRPRPQRVPRP | 0.423 |
| RRIRVRPPRLPRPRPRPGDDPRP | 0.364 |
| RRIRKRPPRLPRPRPRPPTTPRP | 0.452 |
| RRIRLRPPRLPRPRPRPENGPRP | -0.108 |
| RRIRGRPPRLPRPRPRPFMLPRP | -0.0447 |
| RRIRCRPPRLPRPRPRPKFMPRP | -0.527 |
| RRIRWRPPRLPRPRPRPPTLPRP | 0.315 |
| RRIRKRPPRLPRPRPRPPMSPRP | 0.328 |
| RRIRHRPPRLPRPRPRPVKQPRP | -0.0982 |
| RRIRTRPPRLPRPRPRPALMPRP | 0.165 |
| RRIRARPPRLPRPRPRPFTHPRP | -0.113 |

| Sequence | shrunken log2 fold change |
| --- | --- |
| RRIRNRPPRLPRPRPRPLTSPRP | -0.0977 |
| RRIRERPPRLPRPRPRPGILPRP | -0.304 |
| RRIRHRPPRLPRPRPRPGKEPRP | -0.0977 |
| RRIRARPPRLPRPRPRPWWTPRP | 0.239 |
| RRIRGRPPRLPRPRPRPGDNPRP | 0.0889 |
| RRIRHRPPRLPRPRPRPRMEPRP | -0.0339 |
| RRIRHRPPRLPRPRPRPSKAPRP | -0.463 |
| RRIRPRPPRLPRPRPRPRDQPRP | 0.0809 |
| RRIRWRPPRLPRPRPRPCSRPRP | -0.162 |
| RRIRQRPPRLPRPRPRPYDSPRP | -0.00804 |
| RRIRIRPPRLPRPRPRPLKKPRP | -0.094 |
| RRIRCRPPRLPRPRPRPLAEPRP | 0.242 |
| RRIRKRPPRLPRPRPRPLKAPRP | 0.0198 |
| RRIRSRPPRLPRPRPRPCNDPRP | -0.261 |
| RRIRWRPPRLPRPRPRPFRTPRP | -0.16 |
| RRIRIRPPRLPRPRPRPQMMPRP | -0.622 |
| RRIRKRPPRLPRPRPRPAVVPRP | 0.0614 |
| RRIRERPPRLPRPRPRPCGPPRP | -0.131 |
| RRIRFRPPRLPRPRPRPDTLPRP | -0.0946 |
| RRIRNRPPRLPRPRPRPAEYPRP | 0.0714 |
| RRIRYRPPRLPRPRPRPRMGPRP | -0.0782 |
| RRIRARPPRLPRPRPRPFIRPRP | -0.27 |
| RRIRLRPPRLPRPRPRPWAQPRP | 0.249 |
| RRIRDRPPRLPRPRPRPTRTPRP | 0.246 |
| RRIRQRPPRLPRPRPRPIEHPRP | 0.0215 |

| Sequence | shrunken log2 fold change |
| --- | --- |
| RRIRHRPPRLPRPRPRPQEVPRP | -0.0461 |
| RRIRERPPRLPRPRPRPWIFPRP | -0.101 |
| RRIRGRPPRLPRPRPRPVYPPRP | -0.129 |
| RRIRDRPPRLPRPRPRPFYPPRP | -0.109 |
| RRIRMRPPRLPRPRPRPIIRPRP | 0.0027 |
| RRIRFRPPRLPRPRPRPWKKPRP | -0.00973 |
| RRIRTRPPRLPRPRPRPARKPRP | 0.179 |
| RRIRVRPPRLPRPRPRPDCIPRP | -0.161 |
| RRIRRRPPRLPRPRPRPVWRPRP | 0.436 |
| RRIRWRPPRLPRPRPRPLAPPRP | 0.664 |
| RRIRWRPPRLPRPRPRPQQEPRP | 0.0149 |
| RRIRLRPPRLPRPRPRPNDTPRP | -0.302 |
| RRIRYRPPRLPRPRPRPLNSPRP | -0.0402 |
| RRIRIRPPRLPRPRPRPHMWPRP | -0.321 |
| RRIRNRPPRLPRPRPRPCLHPRP | -0.888 |
| RRIRLRPPRLPRPRPRPSHVPRP | -0.0453 |
| RRIRLRPPRLPRPRPRPAWIPRP | 0.0321 |
| RRIRPRPPRLPRPRPRPIIWPRP | -0.0266 |
| RRIRDRPPRLPRPRPRPWQAPRP | -0.0194 |
| RRIRQRPPRLPRPRPRPKTIPRP | -0.184 |
| RRIRQRPPRLPRPRPRPECAPRP | 0.407 |
| RRIRYRPPRLPRPRPRPVQKPRP | 0.0112 |
| RRIRIRPPRLPRPRPRPTKRPRP | -0.0508 |
| RRIRCRPPRLPRPRPRPSWKPRP | -0.0761 |
| RRIRIRPPRLPRPRPRPGGFPRP | 0.179 |

| Sequence | shrunken log2 fold change |
| --- | --- |
| RRIRYRPPRLPRPRPRPDKHPRP | -0.692 |
| RRIRARPPRLPRPRPRPKDAPRP | 0.347 |
| RRIRMRPPRLPRPRPRPNDSPRP | -0.0147 |
| RRIRSRPPRLPRPRPRPERSPRP | 0.206 |
| RRIRMRPPRLPRPRPRPESDPRP | 3.34 |
| RRIRCRPPRLPRPRPRPTVYPRP | -0.915 |
| RRIRHRPPRLPRPRPRPNAMPRP | -0.0505 |
| RRIRIRPPRLPRPRPRPSKHPRP | -0.813 |
| RRIRERPPRLPRPRPRPSGAPRP | -0.12 |
| RRIRQRPPRLPRPRPRPRHYPRP | -0.191 |
| RRIRFRPPRLPRPRPRPSSTPRP | -0.325 |
| RRIRWRPPRLPRPRPRPYFAPRP | -0.216 |
| RRIRDRPPRLPRPRPRPLGSPRP | 0.2 |
| RRIRYRPPRLPRPRPRPAYSPRP | -0.267 |
| RRIRGRPPRLPRPRPRPYPWPRP | 0.155 |
| RRIRWRPPRLPRPRPRPINYPRP | -0.387 |
| RRIRYRPPRLPRPRPRPVHDPRP | -0.372 |
| RRIRSRPPRLPRPRPRPMPIPRP | -0.109 |
| RRIRIRPPRLPRPRPRPHQDPRP | -0.122 |
| RRIRQRPPRLPRPRPRPTDDPRP | -0.0703 |
| RRIRRRPPRLPRPRPRPKDWPRP | 0.36 |
| RRIRPRPPRLPRPRPRPSDEPRP | -0.244 |
| RRIRARPPRLPRPRPRPEFGPRP | 0.874 |
| RRIRDRPPRLPRPRPRPHIKPRP | -0.598 |
| RRIRYRPPRLPRPRPRPKQIPRP | -0.456 |

| Sequence | shrunken log2 fold change |
| --- | --- |
| RRIRGRPPRLPRPRPRPIMTPRP | 2.36 |
| RRIRMRPPRLPRPRPRPIHAPRP | -0.0962 |
| RRIRNRPPRLPRPRPRPSLVPRP | -0.292 |
| RRIRERPPRLPRPRPRPFAVPRP | -0.759 |
| RRIRNRPPRLPRPRPRPGPFPRP | 0.00962 |
| RRIRHRPPRLPRPRPRPSDEPRP | -0.000726 |
| RRIRHRPPRLPRPRPRPLNMPRP | -1.26 |
| RRIRGRPPRLPRPRPRPISRPRP | 0.0494 |
| RRIRFRPPRLPRPRPRPDKIPRP | -0.0546 |
| RRIRLRPPRLPRPRPRPFPVPRP | 0.11 |
| RRIRHRPPRLPRPRPRPNIYPRP | -0.11 |
| RRIRARPPRLPRPRPRPRDPPRP | 0.948 |
| RRIRVRPPRLPRPRPRPEHDPRP | -0.249 |
| RRIRSRPPRLPRPRPRPEIGPRP | 0.291 |
| RRIRSRPPRLPRPRPRPHEKPRP | 0.0101 |
| RRIRFRPPRLPRPRPRPLMDPRP | -0.0516 |
| RRIRLRPPRLPRPRPRPTVRPRP | -0.107 |
| RRIRSRPPRLPRPRPRPYFEPRP | -0.359 |
| RRIRCRPPRLPRPRPRPKPGPRP | 0.503 |
| RRIRLRPPRLPRPRPRPKADPRP | -0.051 |
| RRIRTRPPRLPRPRPRPQWNPRP | -0.832 |
| RRIRARPPRLPRPRPRPINGPRP | -0.00875 |
| RRIRGRPPRLPRPRPRPSVIPRP | 0.159 |
| RRIRTRPPRLPRPRPRPAGTPRP | 0.0902 |
| RRIRERPPRLPRPRPRPWIWPRP | 0.164 |
